Experiments:
SIRT6(TQ3) = test: FRET; details: EMSA: 10 mM Tris, 50 mM NaCl (100 mM for DNA), 0.5 mM TCEP, 6% glycerol, pH 7.4, on ice, 50 nM NCP, FRET: 50 mM Tris, pH 7.5, 1 nM …
[1] = target: recombinant 601-positioned nucleosome core particle (X. laevis histones, 147-bp 601 DNA) (x. laevis); test: FRET or BRET; 1 nM Cy3-labeled nucleosomes titrated with SIRT6^(TQ3) in solution; 50 mM Tris, 50 mM NaCl, 0.5 mM TCEP, pH 7.5; KD(High) fitted from 0-5 nM (ligand-depleted), KD(Low) from 5-500 nM (specific binding)
[2] = target: recombinant 601-positioned nucleosome core particle (X. laevis histones, 147-bp 601 DNA) (x. laevis); test: native gel or EMSA; TAMRA-labeled SIRT6 with NCP; TAMRA and SYBR Safe fluorescence scanned in the same gel, TAMRA signal normalized to DNA content; gel blotted for histone H3
SIRT6(270-355) CTD = test: EMSA; details: EMSA: 10 mM Tris, 50 mM NaCl (100 mM for DNA), 0.5 mM TCEP, 6% glycerol, pH 7.4, on ice, 50 nM NCP, FRET: 50 mM Tris, pH 7.5, 1 nM …
SIRT6 = test: EMSA; details: apparent, both complexes as bound, 50 nM NCP, EMSA: 10 mM Tris, 50 mM NaCl (100 mM for DNA), 0.5 mM TCEP, 6% glycerol, pH 7.4, on ice, FRET: 50 mM Tris, pH 7.5, 1 nM …
SIRT6(1-292) = test: EMSA; details: EMSA: 10 mM Tris, 50 mM NaCl (100 mM for DNA), 0.5 mM TCEP, 6% glycerol, pH 7.4, on ice, 50 nM NCP, FRET: 50 mM Tris, pH 7.5, 1 nM …
SIRT6(AAA) = test: EMSA; details: EMSA: 10 mM Tris, 50 mM NaCl (100 mM for DNA), 0.5 mM TCEP, 6% glycerol, pH 7.4, on ice, 50 nM NCP, FRET: 50 mM Tris, pH 7.5, 1 nM …
SIRT6 25N mutant = test: EMSA; details: apparent, n=1, EMSA: 10 mM Tris, 50 mM NaCl (100 mM for DNA), 0.5 mM TCEP, 6% glycerol, pH 7.4, on ice, 50 nM NCP, FRET: 50 mM Tris, pH 7.5, 1 nM …
SIRT6 27R mutant = test: EMSA; details: apparent, n=1, EMSA: 10 mM Tris, 50 mM NaCl (100 mM for DNA), 0.5 mM TCEP, 6% glycerol, pH 7.4, on ice, 50 nM NCP, FRET: 50 mM Tris, pH 7.5, 1 nM …
SIRT6(1-301) = test: EMSA; details: 139 nM in text, EMSA: 10 mM Tris, 50 mM NaCl (100 mM for DNA), 0.5 mM TCEP, 6% glycerol, pH 7.4, on ice, 50 nM NCP, FRET: 50 mM Tris, pH 7.5, 1 nM …
[3] = tested on: LANA peptide (Kaposi's sarcoma-associated herpesvirus); test: competition EMSA; details: EMSA: 10 mM Tris, 50 mM NaCl (100 mM for DNA), 0.5 mM TCEP, 6% glycerol, pH 7.4, on ice, 50 nM NCP, FRET: 50 mM Tris, pH 7.5, 1 nM …
[4] = tested on: LANA peptide (Kaposi's sarcoma-associated herpesvirus); test: competition EMSA; details: EMSA: 10 mM Tris, 50 mM NaCl (100 mM for DNA), 0.5 mM TCEP, 6% glycerol, pH 7.4, on ice, 50 nM NCP, FRET: 50 mM Tris, pH 7.5, 1 nM …; remark: listed apart in the source
[5] = target: recombinant 601-positioned nucleosome core particle (X. laevis histones, 147-bp 601 DNA) (x. laevis); test: native gel or EMSA; 50 nM recombinant nucleosomes with varying SIRT6 protein; 10 mM Tris, 50 mM NaCl, 0.5 mM TCEP, 6% glycerol, pH 7.4, on ice >15 min; SYBR Safe; apparent KD, shifted complexes together as bound fraction, ligand-depleted (quadratic) fit
[6] = target: NCP with the high affinity site saturated with full-length SIRT6 (1:1 SIRT6:NCP complex) (x. laevis | not stated) (UniProt Q8N6T7); test: native gel or EMSA; high affinity site on NCPs saturated with 10 nM full-length SIRT6, then increasing SIRT6^(1–292); fraction bound from the loss of free nucleosomes
[7] = target: nucleosome core particle with four alanine mutations at the H2A acidic patch (x. laevis); test: native gel or EMSA; 50 nM recombinant nucleosomes with varying SIRT6 protein; 10 mM Tris, 50 mM NaCl, 0.5 mM TCEP, 6% glycerol, pH 7.4, on ice >15 min; SYBR Safe; apparent KD, shifted complexes together as bound fraction, ligand-depleted (quadratic) fit
[8] = target: recombinant 601-positioned nucleosome core particle (X. laevis histones, 147-bp 601 DNA) (x. laevis); test: native gel or EMSA; competition: SIRT6:NCP complexes pre-formed with 100 nM SIRT6, then competed with LANA peptide (300 nM to 100 µM); IC50 from percent inhibition
[9] = target: recombinant 601-positioned nucleosome core particle (X. laevis histones, 147-bp 601 DNA) (x. laevis); test: native gel or EMSA

Latency Associated Nuclear Antigen (LANA) peptide from Kaposi’s sarcoma-associated herpesvirus, sequence (Q9QR71 1-23): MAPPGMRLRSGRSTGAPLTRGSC

## NCP(Cy3)
SIRT6(TQ3); high-affinity site
  Kd: 0.46 nM
SIRT6(TQ3); low-affinity site
  Kd: 30 nM

## SIRT6 labeled with Tide Quencher 3 (TQ3) at cysteine 18 (from UniProt Q8N6T7 2-355) (enzyme)
[1]
  KD(High), high affinity site: 0.46 nM
  KD(Low), low affinity site: 30 nM

## SIRT6 labeled with tetramethylrhodamine (TAMRA) at cysteine 320 (from UniProt Q8N6T7 2-355) (enzyme)
[2]
  stoichiometry N: 2

## NCP (601, 147 bp)
SIRT6(270-355) CTD
  Kd: 400 nM
SIRT6
  Kd: 13 nM
SIRT6(1-292); 254 nM in text
  Kd: 250 nM
SIRT6(1-292)
  Kd: 40 nM
SIRT6(AAA)
  Kd: 97 nM
SIRT6 25N mutant
  Kd: 14 nM
SIRT6 27R mutant
  Kd: 14 nM
SIRT6(1-301)
  Kd: 140 nM
[3]
  IC50: 6100 nM
[4]
  IC50: 9500 nM

## SIRT6 residues 1–301 (C-terminal truncation) (from UniProt Q8N6T7 1-301) (domain or fragment)
[5]
  Kd: 140 nM
  stoichiometry N: 2

## SIRT6 C-terminal domain (residues 270–355) (from UniProt Q8N6T7 270-355) (domain or fragment)
[5]
  Kd: 400 nM

## SIRT6 residues 1–292 (C-terminal truncation) (from UniProt Q8N6T7 1-292) (domain or fragment)
[5]
  Kd: 250 nM
  stoichiometry N: 2
[6]
  KD(Low), low affinity site: 40 nM

## SIRT6 (full-length, His-tagged) (from UniProt Q8N6T7 1-355) (enzyme)
[7]
  Kd: 140 nM
[5]
  Kd: 13 nM

## SIRT6 with alanine substitutions at S45, N206 and N208 (from UniProt Q8N6T7 2-355) (enzyme)
[5]
  Kd: 97 nM

## Latency Associated Nuclear Antigen (LANA) peptide from Kaposi’s sarcoma-associated herpesvirus
[8]
  IC50: 9500 nM
[9]
  IC50: 6100 nM

## 601 DNA (147 bp)
SIRT6(270-355) CTD; 100 mM NaCl, 50 nM DNA
  Kd: 450 nM

Source: article PMC7568541
